Biological target: p53, recombinant (UniProt P04637 1-393)
Test: BLI

p53, recombinant, sequence (P04637 whole entry): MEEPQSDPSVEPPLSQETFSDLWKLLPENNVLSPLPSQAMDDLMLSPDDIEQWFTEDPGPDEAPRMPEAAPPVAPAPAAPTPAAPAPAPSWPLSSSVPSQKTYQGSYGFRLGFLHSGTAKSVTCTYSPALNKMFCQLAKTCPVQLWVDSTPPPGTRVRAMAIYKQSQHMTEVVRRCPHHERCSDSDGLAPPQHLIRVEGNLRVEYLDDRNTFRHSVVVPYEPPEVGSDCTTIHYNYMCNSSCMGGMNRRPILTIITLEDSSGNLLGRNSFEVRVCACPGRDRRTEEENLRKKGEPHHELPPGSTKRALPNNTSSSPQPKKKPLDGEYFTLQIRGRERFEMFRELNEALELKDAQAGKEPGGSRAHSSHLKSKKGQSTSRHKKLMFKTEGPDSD

B1: recombinant HMGB1 B box (domain or fragment)
chain: KFKDPNAPKRPPSAFFLFCSEYRPKIKGEHPGLSIGDVAKKLGEMWNNTAADDKQPYEKKAAKLKEKYEKDIAAY
modifications: Limits not given; 88-162 is the usual B box construct of the source laboratory (Tracey).
Kd: 14.5 nM
